Our source for the reverse-splicing fitness values is the RNAGym collection of RNA variant scans (doi:10.1093/molbev/msab373).

B1: Azoarcus group I ribozyme (parent)
chain: GUGCCUUGCGCCGGGAAACCACGCAAGGGAUGGUGUCAAAUUCGGCGAAACCUAAGCGCCCGCCCGGGCGUAUGGCAACGCCGAGCCAAGCUUCGGCGCCUGCGCCGAUGAAGGUGUAGAGACUAGACGGCACCCACCUAAGGCAAACGCUAUGGUGAAGGCAUAGUCCAGGGAGUGGCGAAAGUCACACAAACCGG

The variants in the series derive from B1. Description: reverse-splicing fitness (ratio to wild type); higher = more active; in vitro selection; Mg2+ level not given. The procedure, abridged: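 An in vitro group I ribozyme library with randomized positions was T7-transcribed and gel-purified. In triplicate, 10 pmol RNA in EPPS pH 7.5 was reacted with 50 pmoles of a 30-nt RNA substrate for 1 h at 37 °C across several added MgCl2 levels (1–48 mM), then stopped with EDTA. Products were reverse transcribed from a substrate-complementary primer, PCR-amplified and sequenced (HiSeq 4000). Fitness is a variant's read proportion after selection over that before, normalised to wild type.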
Turning to C82G A111U A145U C150U C169G U176A, the reverse-splicing fitness was determined as 0.0132. On to A111C A145C U176G, for which the reverse-splicing fitness is 0.217. For the variant C82A A145C U176G, the reverse-splicing fitness came out at 0.129. As for A111C A120G C150G C169A U176G, the reverse-splicing fitness is 0.00481. Take C82A A111G A120C A145C C150G U176C: the reverse-splicing fitness was 0.00712. As for C82A A111G A120C C150A U176C, the reverse-splicing fitness was determined as 0.0223. The value for C82A A111U C169G U176C was 0.0258.

Take A120C A145G C150U C169G U176A: the reverse-splicing fitness was determined as 0.014.

As for C82G A111U A120G A145U C150A C169U U176G, the reverse-splicing fitness was determined as 0.00528. Take C82A A111U A120G A145C C150G C169A: the reverse-splicing fitness was 0.00846. Under C82G A111U A120G A145U C150A C169A U176C stands 0.0142; under A111U A145C C169U U176C, 0.0265. The value for A111C A120C A145G U176G was 0.0393; that for A111G A120U C150U U176G was 0.0744; that for C82G A120G C150G C169G U176C was 0.00511. Regarding C82G A111G A145U C169G U176G, the reverse-splicing fitness was 0.00507. C82A A111U C150U C169G U176G: the reverse-splicing fitness is 0.00649. The value for A111G A120C A145U C169U U176C was 0.0719. Under C82G A111C A120G A145C C150U C169G U176A stands 0.0216; under C82A A111C A120G A145C C150U C169G U176G, 0.00558. The value for C82G A120C A145G C150A C169G U176A was 0.0184. On to C82G A111U A120C U176G, for which the reverse-splicing fitness was found to be 0.00814. C82U A111C A120G A145G C150A U176G: the reverse-splicing fitness is 0.00528. The value for C82U A120C A145G C150U C169A U176C was 0.0131; that for C82A A120G A145C C150U C169G was 0.00984.

Consider C82G A111C A120G C150G C169U U176C, for which the reverse-splicing fitness was 0.0132.

C82U A111C A120U A145U C150A C169A U176C: the reverse-splicing fitness amounted to 0.00253. The value for C82G A120G A145C C150G C169G was 0.0108. As for C82A U176C, the reverse-splicing fitness turned out to be 0.484. Under A111C A120G A145G C150G C169G U176C stands 0.0114; under C82U A111U C169U U176G, 0.00559.

C82G A111C A120U A145G C150A C169G U176C: the reverse-splicing fitness was determined as 0.00534. Consider C82A A111U A120G A145U C150U C169G U176C, for which the reverse-splicing fitness was determined as 0.0147. As for A111U A120C A145U C150U C169U U176A, the reverse-splicing fitness amounted to 0.0306.

As to A111G A120G A145G C150G C169G U176C, the reverse-splicing fitness amounted to 0.0117. In the case of C82U A145G C150A U176A, the reverse-splicing fitness worked out at 0.0793. For the variant C82G A111C A120G A145U C150A C169U U176C, the reverse-splicing fitness stood at 0.0124.

In the case of C82U A111G A120U A145C C150A C169U U176C, the reverse-splicing fitness came out at 0.00235. The value for C82U A111G A120G A145C C150G C169A U176A was 0.00781. Turning to A111U A120U A145G C150U C169A, the reverse-splicing fitness was 0.00694.

On to C82A A111C A120U A145G C150U C169U U176A, for which the reverse-splicing fitness was 0.00523. Consider C82U A120C A145G C150G C169G, for which the reverse-splicing fitness was found to be 0.00749. As for C82G A120C C150G U176A, the reverse-splicing fitness came out at 0.00858.

With A111C A120U C169G U176G, the reverse-splicing fitness was determined as 0.00154. Under C82U A120G A145G C150U U176G stands 0.00573.

For C82G A111U A120U A145G C150A, the reverse-splicing fitness was 0.0109. For the variant C82A A111C A120C A145G C150U C169G U176A, the reverse-splicing fitness was found to be 0.0127. The value for C82A A111C A145U C150U U176G was 0.0141; that for C82A A111U A145G U176G was 0.0224.

With C82A A120C C150G, the reverse-splicing fitness was found to be 0.0157. The value for C82A A111C A145G C150G C169G U176C was 0.0128. The value for C82A A111C A120G C150U U176C was 0.02.

Regarding C82G A111C A120U C169G U176C, the reverse-splicing fitness was 0.00367. On to C82G A120G C150G, for which the reverse-splicing fitness came to 0.00725. Take C82A A120G A145G C150A C169A U176A: the reverse-splicing fitness worked out at 0.0183.

Take C82A A111C A145U C150G C169G: the reverse-splicing fitness is 0.00748. With C82U A111C A145C C150U C169U, the reverse-splicing fitness worked out at 0.00891. On to C82A A111C A120U A145U C150G U176A, for which the reverse-splicing fitness amounted to 0.00392. The value for A111G A120C A145U C150U C169G U176C was 0.0106; that for C82G A111U A120U C150G U176G was 0.0026; that for C82G A111C C169A U176A was 0.0198. As to C82G A111U A120C A145C C150U U176G, the reverse-splicing fitness amounted to 0.00601. For the variant C82U A111C A120G C169G, the reverse-splicing fitness is 0.0104. The value for A111U A120G A145U C150G C169A was 0.0162. On to C82G A111C A120C C150G, for which the reverse-splicing fitness is 0.00951. With C82A A111G C150A U176C, the reverse-splicing fitness was 0.0387. Under C82U A111U A120C A145C C169U U176G stands 0.00412; under A111G A120U C169G U176G, 0.00198.

C82A A111C A120C: the reverse-splicing fitness was 0.0246. In the case of C82A A111C A120G C150A C169U U176C, the reverse-splicing fitness came out at 0.018. Under C82G A111G A120C A145G C150A U176G stands 0.0119.

With A111C A145G C150A C169G U176A, the reverse-splicing fitness was 0.0153.

Take C82G A120G A145G C150A C169A U176C: the reverse-splicing fitness turned out to be 0.0228. The value for A111C C169G U176G was 0.00725; that for C82A A120G A145U C150A C169A U176C was 0.0115. Under C82A A111G A120C A145C C150U C169A U176C stands 0.00983. Under C82U A111C A145C C150A C169G stands 0.00773; under C82G A111U A120C A145G C150U C169U U176A, 0.0137; under C82U A145U C150A C169A U176G, 0.00546.

A111G A120C C150A C169A: the reverse-splicing fitness turned out to be 0.00922. Under C82G A111G A145U C150G C169U stands 0.00934; under A111G A120U A145C C150G, 0.116. For C82G A111G A120G A145G C150A C169G U176C, the reverse-splicing fitness amounted to 0.0272.
